According to paper PMC4790447:
Positions count from the first letter of the chain named. Names and notes keep the numbering of the source. Each block holds one binder with its values, some of them ahead of it.

Target: RLC-depleted porcine cardiac β-myosin (porcine) (UniProt P79293)
Assay: co-sedimentation

B3: R58Q human ventricular regulatory light chain, dephosphorylated (mock phosphorylation reaction) (natural protein)
chain: MAPKKAKKRAGGANSNVFSMFEQTQIQEFKEAFTIMDQNRDGFIDKNDLRDTFAALGQVNVKNEEIDEMIKEAPGPINFTVFLTMFGEKLKGADPEETILNAFKVFDPEGKGVLKADYVREMLTTQAERFSKEEVDQMFAAFPPDVTGNLDYKNLVHIITHGEEKD
percent reconstitution (densitometry): 97.8%

B5: N47K human ventricular regulatory light chain, dephosphorylated (mock phosphorylation reaction) (natural protein)
chain: B3 chain with N47K, Q58R
percent reconstitution (densitometry): 106%

B6: N47K human ventricular regulatory light chain, phosphorylated by MLCK (natural protein)
chain: B3 chain with N47K, Q58R
modifications: phosphoserine at 15 (98.4 ± 1.6% phosphorylated)
percent reconstitution (densitometry): 96.2%

Further lines, results first:

percent reconstitution (densitometry): 108%
B1: wild-type human ventricular regulatory light chain, dephosphorylated (mock phosphorylation reaction) (natural protein)
chain: B3 chain with Q58R

percent reconstitution (densitometry): 109%
B2: wild-type human ventricular regulatory light chain, phosphorylated by MLCK (natural protein)
chain: B3 chain with Q58R
modifications: phosphoserine at 15 (95.7 ± 3.6% phosphorylated)

percent reconstitution (densitometry): 107%
B4: R58Q human ventricular regulatory light chain, phosphorylated by MLCK (natural protein)
chain: B3 chain
modifications: phosphoserine at 15 (87.4 ± 0.8% phosphorylated; full phosphorylation never accomplished)
